Test results as given in PMC8585875.

How the values were obtained:
[1] = target: H6-Rap80(1-137)-7A-Linker (human) (UniProt Q96RL1); experiment: pull-down; H6-Rap80(1-137)-7A-Linker on Ni-NTA agarose; 3.5 µM hybrid chain in 50 µl; 50 mM TRIS pH 7.5, 150 mM NaCl, 2 mM TCEP, 0.1% NP-40; 1 h at 4 °C; Coomassie SDS-PAGE, densitometry normalised to Rap80
[2] = target: H6-Rap80(35-124)-S18C-C70S-C121S-7A-Linker, Atto488-labelled (human) (UniProt Q96RL1); experiment: fluorescence polarisation; fluorescence anisotropy; hybrid chain titrated to 300 nM Atto488-labelled Rap80(35-124); 20 mM Tris pH 6.8, 100 mM NaCl, 4 mM DTT; single-site binding model

Substance | fold affinity against the linearly linked hybrid chain (densitometry of the pull-down) [1] | Kd [2]
K63-diUb-K21-SUMO2 hybrid chain (Srt2A/Srt5M-generated) (from UniProt P0CG48 1-76; P0CG48 1-76; P61956 1-95) (complex) | 2 fold | 
linear diUb-SUMO2 hybrid chain, wt/LPT-linked (from UniProt P0CG48 1-76; P0CG48 1-76) (complex) |  | 1.2 µM
